# Experimental data taken from patent publication US20100168016A1, “DIAGNOSIS AND TREATMENT OF DISEASES CAUSED BY MISFOLDED PROTEINS” (THE JACKSON LABORATORY, priority 2007, published 2010).
# B1: ANKRD16^CAST: full length (361 amino acid) ANKRD16 from the CAST allele, expressed from congenic region or transgene in mice and cells (protein)
# chain: MALPGDPRRLCRLVQEGRLRDLQEELAVARGCRGPAGDTLLHCAARHGRQDILAYLVEAWSMDIEATNRDYKRPLHEAASMGHRDCVRYLLGRGAVVDSLKKADWTPLMMACTRKNLDVIQDLVEHGANPLLKNKDGWNSFHIASREGHPVILRYLLTVCPDAWKTESNIRRTPLHTAAMHGCLEAVQVLLERCHYEPDCRDNCGVTPFMDAIQCGHVSIAKLLLEQHKACSSAADSMGAQALHRAAVTGQDEAIRFLVCGLGIDVDVRAKSSQLTALHYAAKEGQTNTVQTLLSLGADINSTDERNRSVLHLACAGQHVACTRLLLQSGLKDSADLTGTLAQQLMRSVDILQDFDHDVKS
# Legend:
# [1] = tested on: sti/sti embryonic fibroblasts; assay: serine-induced cell death in embryonic fibroblasts; assay type: cell-based, mouse; conditions: ANKRD16^CAST/+; sti/sti fibroblasts vs sti/sti, increasing serine
# Description: FIG. 5. A graph depicting viability curves for mouse embryonic fibroblasts (MEFs) with increasing concentrations of serine in the culture media. ANKRD 16 (Stim^CAST) rescues serine-mediated cell death in sti/sti fibroblasts.
# We analyzed serine-induced cell death in +/+, ANKRD16^CAST/+; sti/sti, and sti/sti embryonic fibroblasts. Mouse embryonic fibroblasts were isolated from mouse embryos carrying no mutation (WT; C57BL/6J), the CAST-derived ANKRD16 gene (ANKRD16^CAST/+) and the sticky (sti/sti) mutation, or carrying the C57BL/6 ANKRD16 gene and the sti mutation (sti/sti).
# sti/sti Purkinje cells [2] = assay: Purkinje cell survival in sti/sti mice carrying the Pcp2-driven ANKRD16 transgene; assay type: in vivo, mouse
# Description: To determine if ANKRD16 can rescue neuron death in a cell autonomous fashion, we transgenically expressed the ANKRD16 cDNA in Purkinje cells and examined the role of this transgene in Purkinje cell survival in sti/sti mice. ANKRD16 coding sequence was amplified by polymerase chain reaction from cDNA by using Pfu DNA polymerase (Stratagene), purified by agarose gel electrophoresis and ligated into the expression vector. Transgenic (TgPcp2-ANKRD16) mice carrying the full-length ANKRD16 cDNA (ANKRD16^361 or CAST allele) were generated on the inbred C57BL/6J background by microinjection of the purified DNA into C57BL/6J zygotes.
# sticky mutant mice = assay: fertility (number of live offspring) of sticky mutant mice; assay type: in vivo, mouse; conditions: ANKRD16^CAST crossed into sti/sti; 7 matings, females 8-9 weeks
# Description: FIGS. 7. A graph depicting litter size (y axis) in WT, STIM and STI mice (x axis). Expression of ANKRD16 protein can restore the reduced fertility in sticky mutant mice. “WT” refers to C57BL/6J wild type mice, “STIM” refers to sticky mutant mice carrying the modifier gene ANKRD16, and STI means homozygous sticky mutant mice.
# Female mice of the various genotypes at the age of at 8-9 weeks were mated and the fertility was determined by counting the number of live offspring. When mating C57BL/6J mice (WT), which are wild type, the average litter size was 6.87 from 8 matings with a total of 55 offspring. […] When the modifier gene ANKRD16^CAST was crossed into the sti/sti mutations, the litter size was restored to normal with 6.51 pups from 7 matings with a total of 46 offspring. […] The CAST ANKRD16 is the full length version of ANKRD16, also called ANKRD^361.
# sti/sti Purkinje cells [3] = assay: ubiquitinated protein inclusions in sti/sti Purkinje cells; assay type: in vivo, mouse; conditions: sti/sti mice, 4, 6 and 12 weeks of age
# Description: FIGS. 9A and B. Graphs illustrating that the expression of full length ANKRD16 reduces protein inclusions in sti/sti Purkinje cells. Sti/sti means homozygous sticky mice (B6.Cg-Aarssti/J). ANKRD16; sti/sti means homozygous sticky mice intercrossed with mice expressing full length ANKRD16. […] 4W means brains were isolated from 4 week old mice, 6W for 6 week old mice and 12 W for 12 week old mice.
# Brains from homozygous sticky mice (sti/sti; B6.Cg-Aarssti/J; available from The Jackson Laboratory Stock Number 002560) and sticky mice intercrossed with transgenic mice expressing the full length ANKRD16, were isolated at the age of 4 weeks, 6 weeks and 12 weeks. The brains were processed for sectioning and antibody staining using standard histological methods. Sagittal sections were prepared and immunostained with antibodies against ubiquitin and calbindin. The antibodies against calbidin D-28 were used to visualize Purkinje cells. The antibodies against ubiquitin were used to visualize ubiquitinated protein aggregates. Purkinje cells with ubiquitinated aggregates were counted from three sections spaced at 100 micrometer beginning at midline and working laterally per mouse. Three mice from each genotype were analyzed. The total number of Purkinje cells with inclusions as well as the % of remaining Purkinje cells with inclusions are shown in the graphs in FIGS. 9A and 9B.
# [4] = tested on: ubiquitin/proteasome pathway; assay: UbG76V-GFP proteasome reporter in mouse embryonic fibroblasts (FACS); assay type: cell-based; conditions: ANKRD16^CAST double transgenic fibroblasts, 1.5 uM epoximicin for 6 hours
# Description: FIG. 13. […] Mouse embryonic fibroblasts were analyzed from UbG76V-GFP transgenic and UbG76V-GFP; ANKRD16^CAST double transgenic mice; untreated and treated with 1000 nM epoximicin for 6; 12 or 18 hours (hr). The presence of the ANKRD16^CAST allele leads to reduced GFP intensity which correlates with increased proteasome activity.
# Two lines of transgenic mice, UB^G76V-1 and UB^G76V-2, were generated with a ubiquitin-fusion GFP driven by the chicken β-actin promoter (Lindsten et al., 2003a; Lindsten et al., 2003b). UbG76V-GFP transgenic mice are available from The Jackson Laboratory (stock number 008111 and 008112). These mice ubiquitously express transcripts for the transgene, but as expected from the short half-life of the modified GFP protein, GFP is undetectable in all tissues analyzed. […]
# UbG76V-GFP transgenic mice were intercrossed with the BAC transgenic mice carrying the CAST allele of ANKRD16, which gives rise to full length ANKRD16 mRNA and protein, yielding in double transgenic called UbG76V-GFP; ANKRD16^CAST. […] Using Western blot analysis the expression of ANKRD16 was analyzed showing an upregulation of ANKRD16 in the double transgenic mice UbG76V-GFP; ANKRD16 6^CAST. […]
# [5] = tested on: mouse embryonic fibroblasts; assay: epoximicin-induced cell death of mouse embryonic fibroblasts (propidium iodide, FACS); assay type: cell-based; conditions: epoximicin 400 nM to 2500 nM for 18 hours
# Description: FIG. 14. […] Fibroblasts with different genotypes were compared: WT means C57BL/6J; UbG76VGFP transgenic and ANKRD16^CAST UbG76V-GFP double transgenic.
# Mouse embryonic fibroblasts were treated with 1.5 uM epoximicin for 6 hours before the GFP (green fluorescent protein) levels were analyzed by fluorescence microscopy (data not shown) or fluorescence-activated cell sorting (FACS) analysis (FIG. 13). Mouse embryonic fibroblasts not expressing the ANKRD16^CAST allele show a higher GFP level. […] The proteasome inhibitor epoximicin prevents the rapid degradation of GFP in the proteasome. […] Further the embryonic fibroblasts from the C57BL/6J wild type (WT), UbG76V-GFP transgenic and UbG76V-GFP; ANKRD16^CAST double transgenic mice were treated with various concentrations of epoximicin for 18 hours. The epoximicin concentrations ranged from 400 nM to 2500 nM (see FIG. 14). Fibroblasts were stained with propidium iodide to evaluate the percentage of cell death by FACS analysis.
molecule,measurement,setting,value
B1,rescue from serine-induced cell death,[1],completely rescued
same,ataxia,"sti/sti Purkinje cells [2]; sti/sti mice carrying the transgene, 3 months of age",no signs of ataxia
same,Purkinje cell death (calbindin D-28 immunohistochemistry),"sti/sti Purkinje cells [2]; sti/sti mice, Pcp2 (L7) promoter",suppression of Purkinje cell death
same,litter size,sticky mutant mice,6.51 pups
same,Purkinje cells with protein aggregates,sti/sti Purkinje cells [3],reduces Purkinje cells with protein aggregates
same,green fluorescence from GFP,[4],greatly reduced
same,cell death,[5],reduced cell death
